Assays:
[1] = molecular target: NOS3 NtMAP peptide (N-terminal MAP kinase site), biotinylated (human); test: BLI; N-terminally biotinylated NOS3 peptides on streptavidin sensors, inactive MAP kinases as analytes (31 to 1000 nM); 25 °C; PBS with 10% glycerol, 0.005% tween, 1 mM DTT; global one-state association-then-dissociation fit
[2] = molecular target: NOS3 AI peptide (autoinhibitory loop site), biotinylated (human); test: as above
[3] = molecular target: NtMAP peptide (NOS3 N-terminal MAP kinase site) (human); test: BLI; N-terminally biotinylated NOS3 peptides on streptavidin sensors, inactive MAP kinases as analytes at 31-1000 nM; 25 °C; PBS with 10% glycerol, 0.005% tween, 1 mM DTT; global one-state association-then-dissociation fit
[4] = molecular target: AI peptide (NOS3 autoinhibitory loop site) (human); test: as above
[5] = molecular target: ERK2 (UniProt P63086); test: BLI, biotinylated peptide on streptavidin sensor

koff [1] [s⁻¹]	kon [1] [M⁻¹ s⁻¹]	koff [2] [s⁻¹]	kon [2] [M⁻¹ s⁻¹]	Kd [3] [nM]	koff [3] [s⁻¹]	kon [3] [M⁻¹ s⁻¹]	Kd [4] [nM]	koff [4] [s⁻¹]	kon [4] [M⁻¹ s⁻¹]	KD ([5]; reference: unphosphorylated NtMAP peptide, sites S114)	KD ([5]; reference: unphosphorylated AI peptide, sites S633)	Substance
0.00623	6600	0.00207	12100	940	0.062	6600	170	0.002	12000	–	–	ERK2, inactive (unphosphorylated), His-purified (from UniProt P63086 1-358) (enzyme)
0.000543	14100	0.00025	84600	38	0.00054	14000	3	–	84000	–	–	GST-JNK1α1, inactive (unphosphorylated), made in house (from UniProt P45983-2 1-384) (enzyme)
–	–	–	–	–	–	–	–	–	–	lost; reference 940	–	NOS3 (eNOS) NtMAP site (from UniProt P29474) NtMAP pS114 peptide
–	–	–	–	–	–	–	–	–	–	–	lost; reference 170	NOS3 (eNOS) autoinhibitory (AI) loop site (from UniProt P29474) AI pS633 peptide

From paper PMC9063426, “MAP kinases differentially bind and phosphorylate NOS3 via two unique NOS3 sites” (FEBS Open Bio, 2022)
